# According to paper PMC3005583:
# B1: Anti-Lys aptamer / Competitor 3 probe (mixed)
# DNA 1: ATCAGGGCTAAAGAGTGCAGAGTTACTTAG
# DNA 2: ATCAGGGCACTCTTTAGCCCTGAT
# modifications: 5' and 3' pyrene via (CH2)6 on strand 2
# Biological target: lysozyme (Lys) (UniProt P00698 19-147)
# Assay: competition
binder,measurement,value
B1,binding result,binds
